Biological target: T1, Axl-Fc (R&D Systems) (UniProt P30530-2 26-440, limits assumed)
T1 construct: Bought reagent (R&D Systems, Minneapolis); also called Axl-Fc receptor; not shown: Fc part of the bought fusion
T1 sequence (looked up): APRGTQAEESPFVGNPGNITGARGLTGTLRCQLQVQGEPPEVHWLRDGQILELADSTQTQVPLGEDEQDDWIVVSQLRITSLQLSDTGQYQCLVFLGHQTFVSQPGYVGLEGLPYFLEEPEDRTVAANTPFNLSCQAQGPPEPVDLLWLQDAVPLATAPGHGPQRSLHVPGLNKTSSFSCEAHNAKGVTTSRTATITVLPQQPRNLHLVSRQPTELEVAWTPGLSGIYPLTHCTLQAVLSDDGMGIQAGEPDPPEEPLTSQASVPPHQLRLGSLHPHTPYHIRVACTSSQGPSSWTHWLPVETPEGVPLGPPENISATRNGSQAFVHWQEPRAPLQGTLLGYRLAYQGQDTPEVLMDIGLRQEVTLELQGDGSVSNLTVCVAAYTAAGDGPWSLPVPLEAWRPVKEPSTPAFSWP
Test: EIA: plate coated with Axl-Fc, Gas6_Flag detected with HRP anti-Flag M2 antibody, OD490

B1: human Gas6_Flag (human Growth Arrest Specific Gene 6 protein with a Flag epitope tag at the C-terminus) (ligand)
chain: ALLPAREATQFLRPRQRRAFQVFEEAKQGHLERECVEELCSREEAREVFENDPETDYFYPRYLDCINKYGSPYTKNSGFATCVQNLPDQCTPNPCDRKGTQACQDLMGNFFCLCKAGWGGRLCDKDVNECSQENGGCLQICHNKPGSFHCSCHSGFELSSDGRTCQDIDECADSEACGEARCKNLPGSYSCLCDEGFAYSSQEKACRDVDECLQGRCEQVCVNSPGSYTCHCDGRGGLKLSQDMDTCEDILPCVPFSVAKSVKSLYLGRMFSGTPVIRLRFKRLQPTRLVAEFDFRTFDPEGILLFAGGHQDSTWIVLALRAGRLELQLRYNGVGRVTSSGPVINHGMWQTISVEELARNLVIKVNRDAVMKIAVAGDLFQPERGLYHLNLTVGGIPFHEKDLVQPINPRLDGCMRSWNWLNGEDTTIQETVKVNTRMQCFSVTERGSFYPGSGFAFYSLDYMRTPLDVGTESTWEVEVVAHIRPAADTGVLFALWAPDLRAVPLSVALVDYHSTKKLKKQLVVLAVEHTALALMEIKVCDGQEHVVTVSLRDGEATLEVDGTRGQSEVSAAQLQERLAVLERHLRSPVLTFAGGLPDVPVTSAPVTAFYRGCMTLEVNRRLLDLDEAAYKHSDITAHSCPPVEPAAADYKDDDDK
notes: Expressed from full-length cDNA in HEK293 cells grown with vitamin K1 and purified on anti-Flag M2 resin; 2'; also called Gas6_tag
B1 was tested, and the EC50 was ~0.02 µg/mL.
